{
  "source": "patent US20250223627A1",
  "about": "“FLUOROGENIC SUBSTRATES FOR AMINOPEPTIDASE DETECTION IN BIOFLUIDS” (GLYMPSE BIO, INC., priority 2022, published 2025)",
  "key": {"NASH-related proteases": {"test_system": "NASH-related proteases", "assay": "Probe cleavage in mouse plasma, NASH vs healthy (RFU per minute)", "type": "biochemical", "conditions": "for ability to distinguish (differentiate) between NASH and healthy samples: activity as RFU per minute in 1% mouse plasma, NASH (CDAHFD) vs healthy (CD); for disease contrast (NASH vs healthy): mouse plasma", "method": "All animals were used in accordance with animal care guidelines. Plasma was obtained from these blood samples by centrifugation at 3,500 RPM for 20 min at 4° C. The plasma was stored at −80° C. until it was needed for experimental purposes.\nSamples were mixed with protease substrates and quenchers/reporters in 96-well plates. The 96-well plates were read on a Biotech Synergy H1, using 465,535 excitation/emission settings.\nThe probes of the present application were able to measure the activity of NASH-related proteases as expressed in Relative Fluorescent Unit (RFU) per minute in the two mouse populations. Probes measuring cathepsin activity were 3-fold higher in protease cleavage kinetics in mice with NASH compared to healthy mice.\nUsing the method of the above example, PEGylated probes were used to measure the activity of NASH-related proteases, as expressed in RFU per minute in 1% mouse plasma samples."}, "DPP4": {"biological_target": "DPP4 (Homo sapiens, UniProt P27487)", "sequence (P27487 whole entry, species assumed)": "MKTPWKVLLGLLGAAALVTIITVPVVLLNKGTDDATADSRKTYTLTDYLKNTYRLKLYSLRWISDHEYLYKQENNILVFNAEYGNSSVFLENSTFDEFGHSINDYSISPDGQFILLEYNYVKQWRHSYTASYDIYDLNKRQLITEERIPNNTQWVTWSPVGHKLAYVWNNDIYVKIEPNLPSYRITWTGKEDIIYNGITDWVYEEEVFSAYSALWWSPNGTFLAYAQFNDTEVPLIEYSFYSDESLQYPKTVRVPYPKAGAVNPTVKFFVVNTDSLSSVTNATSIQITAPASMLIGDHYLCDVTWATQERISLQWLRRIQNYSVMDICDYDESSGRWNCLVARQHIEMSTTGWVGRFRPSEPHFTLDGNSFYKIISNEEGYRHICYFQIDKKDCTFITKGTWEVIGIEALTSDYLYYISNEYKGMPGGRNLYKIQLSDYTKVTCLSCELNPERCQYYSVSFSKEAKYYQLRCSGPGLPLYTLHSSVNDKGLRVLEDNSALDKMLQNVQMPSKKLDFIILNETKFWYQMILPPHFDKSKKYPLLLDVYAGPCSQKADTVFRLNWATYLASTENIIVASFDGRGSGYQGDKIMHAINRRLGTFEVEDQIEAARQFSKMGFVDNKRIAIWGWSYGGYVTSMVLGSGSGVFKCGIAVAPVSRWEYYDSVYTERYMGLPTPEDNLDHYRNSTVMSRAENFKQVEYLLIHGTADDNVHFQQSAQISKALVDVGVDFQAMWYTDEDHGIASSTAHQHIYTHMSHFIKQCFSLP", "assay": "Recombinant protease panel, probe cleavage: dpp4", "type": "biochemical", "conditions": "expressed in RFU per minute", "method": "Substrate plates were thawed and spun down for 5 minutes to ensure the substrates were at the bottom of the wells. Proteases for each substrate plate were prepared by adding 1 protease per plate. Proteases were then diluted to 15 nM in 2 mL of specified protease buffer (see Table 5). Assay buffer was added to control wells while […] active enzyme in assay buffer was added to each sample well. Plates were spun down and then read immediately after centrifugation."}, "[1]": {"test_system": "most other probes (FIG. 16)"}, "[2]": {"test_system": "Probe #766, K(Acc)(Hyp)G(PEG8)K(Dnp)k"}, "[3]": {"test_system": "Probe #762, K(Acc)(Pro-4-Obzl)G(PEG8)K(Dnp)k"}, "[4]": {"test_system": "Probe #768, K(Acc)(Sar)G(PEG8)K(Dnp)k"}},
  "data": [
    {"substance": "K(Acc)AG-PEG8-K(Dnp)-k [Probe #678]", "values": [
      {"measurement": "ability to distinguish (differentiate) between NASH and healthy samples", "setting": "NASH-related proteases", "value": "ability to distinguish between NASH and healthy samples"},
      {"measurement": "ability to distinguish (differentiate) between NASH and healthy samples", "setting": "NASH-related proteases; listed as probe 678", "value": "able to differentiate between NASH and healthy samples"},
      {"measurement": "disease contrast (NASH vs healthy)", "setting": "NASH-related proteases", "value": "stronger disease contrast than the Ala-Lys motif of Probe #680"},
      {"measurement": "DPPIV (DPP4) protease activity on the probe (cleavage)", "setting": "DPP4", "value": "needed for measuring DPPIV activity"}
    ]},
    {"substance": "aminopeptidase n/CD13", "values": [
      {"measurement": "hydrolysis of fluorogenic probe by protease", "setting": "[1]", "value": "most other probes are susceptible to cleavage"},
      {"measurement": "hydrolysis of fluorogenic probe by protease", "setting": "[2]", "value": "evade hydrolysis from Aminopeptidase N"},
      {"measurement": "hydrolysis of fluorogenic probe by protease", "setting": "[3]", "value": "evade hydrolysis from Aminopeptidase N"},
      {"measurement": "hydrolysis of fluorogenic probe by protease", "setting": "[4]", "value": "evade hydrolysis from Aminopeptidase N"}
    ]},
    {"substance": "AK(Acc)G-PEG8-K(Dnp)-k [Probe #680]", "values": [
      {"measurement": "disease contrast (NASH vs healthy)", "setting": "NASH-related proteases", "value": "Lys-Ala motif of Probe #678 (FIG. 13A) displays stronger disease contrast than the Ala-Lys motif of Probe #680"}
    ]},
    {"substance": "dpp2/7", "values": [
      {"measurement": "cleavage of fluorogenic probe by protease panel", "setting": "[3]", "value": "Probe #762 is selective for DPP2"}
    ]},
    {"substance": "dipeptidyl-peptidase 4 (DPP4 or DPPIV)", "values": [
      {"measurement": "cleavage of fluorogenic probe by protease panel", "setting": "[2]", "value": "selective for dipeptidyl peptidases with strong preferences for DPP4"},
      {"measurement": "cleavage of fluorogenic probe by protease panel", "setting": "[4]", "value": "selective for dipeptidyl peptidases with strong preferences for DPP4"},
      {"measurement": "cleavage of fluorogenic substrate (fluorescence over time)", "setting": "a substrate (FIG. 19C)", "value": "a substrate is rapidly cleaved by DPP4 (square markers) but remains intact in buffer alone with no protease present"}
    ]}
  ]
}
